The target of the test is T1, CD33 (UniProt P20138 18-259, limits assumed).
T1 construct: CD33 protein used as the active surface in the Biacore assay (about 1000 RU); also called Siglec-3; SIGLEC3
Briefly: SPR, Biacore T-200, CD33 amine-coupled on CM5 chip, antibody as analyte (31-500 nM). How it is done: To determine whether humanized anti-CD33 My96 antibodies bind to CD33 with equal affinity as the chimeric form, surface plasmon resonance assay using Biacore T-200 was performed. Biacore T-200 Biosensor, CM5 sensor chip, and related reagents were purchased from GE Healthcare. CD33 as the active surfaces and blank as the reference were immobilized onto the CM5 sensor chip at around 1000 RU (response units) using the Amino Coupling kit (GE Healthcare). CD33 antibodies and relevant control antibodies were diluted in HBS-EP buffer (0.01 M HEPES pH 7.4, 0.15 M NaCl, 3 mM EDTA, 0.05% v/v Surfactant P20) at varying concentrations (31-500 nM) prior to analysis. Samples were injected over the sensor surface at a flow rate of 30 μL/min over 1 min. Following completion of the association phase, dissociation was monitored in HBS-EP buffer for 3 min at the same flow rate or for 30 minutes at 37° C. for antibodies with slow koff. At the end of each cycle, the surface was regenerated using 10 mM NaOH at a flow rate of 50 μL/min over 30 sec. The biosensor curves obtained following injection of the samples over active surface were subtracted from the control curves obtained with the samples injected over reference surface prior to kinetics analysis. The data were analyzed using the Biacore T-200 evaluation software. As shown in the Table below, the humanized anti-CD33 My96 antibodies bound with similar kₒₙ and koff as the chimeric form of the antibodies.
A general note: SPR reads the build-up and loss of mass on a sensor chip optically.

Changes are numbered by the printed parent chain.

T1 sequence (P20138 18-259 limits assumed): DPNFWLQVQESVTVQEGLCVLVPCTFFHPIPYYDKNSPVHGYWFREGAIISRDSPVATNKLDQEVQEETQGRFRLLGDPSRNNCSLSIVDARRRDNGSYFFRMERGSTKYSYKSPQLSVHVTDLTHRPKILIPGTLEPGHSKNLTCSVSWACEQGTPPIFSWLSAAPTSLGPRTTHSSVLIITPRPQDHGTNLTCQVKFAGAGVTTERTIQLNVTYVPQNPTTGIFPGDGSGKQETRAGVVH

B1: chMy96 (antibody, V domains shown)
VH: QVQLQQPGAEVVKPGASVKMSCKASGYTFTSYYIHWIKQTPGQGLEWVGVIYPGNDDISYNQKFKGKATLTADKSSTTAYMQLSSLTSEDSAVYYCAREVRLRYFDVWGAGTTVTVSS
VL: NIMLTQSPSSLAVSAGEKVTMSCKSSQSVFFSSSQKNYLAWYQQIPGQSPKLLIYWASTRESGVPDRFTGSGSGTDFTLTISSVQSEDLAIYYCHQYLSSRTFGGGTKLEIK
notes: also called chimeric form of My96; chimeric anti-CD33 antibody
As to B1, the Kd is 0.321 pM, the koff amounted to 2.38e-07 s⁻¹ and the kon is 739000 M⁻¹ s⁻¹.

B2: My96-H1L2 (antibody, human IgG1, V domains shown)
VH: QVQLVQSGAEVKKPGASVKVSCKASGYTFTSYYMHWVRQAPGQGLEWMGVIYPGNDDISYAQKFQGRVTMTADTSTSTVYMELSSLRSEDTAVYYCAREVRLRYFDVWGAGTTVTVSS
VL: NIVLTQSPDSLAVSLGERATINCKSSQSVFFSSSQKNYLAWYQQKPGQPPKLLIYWASTRESGVPDRFSGSGSGTDFTLTISSLQAEDVAVYYCHQYLSSRTFGGGTKLEIK
notes: Humanized My96 IgG (human IgG1 frameworks), expressed in DG44 cells; also called humanized My96 VH-1/VL-2
Turning to B2, binding was characterised by a dissociation constant (Kd) of 0.218 pM, the koff turned out to be 1.03e-07 s⁻¹ and the kon was 473000 M⁻¹ s⁻¹.

B3: My96-H2L2 (antibody, human IgG1, V domains shown)
VH: B2 VH with A61N, T74K
VL: B2 VL
notes: Humanized My96 IgG (human IgG1 frameworks), expressed in DG44 cells; also called humanized My96 VH-2/VL-2
B3: binding was characterised by a dissociation constant (Kd) of 0.273 pM, the koff stood at 1.42e-07 s⁻¹ and the on-rate (kon) came out at 520000 M⁻¹ s⁻¹.

B4: My96-H2L3 (antibody, human IgG1, V domains shown)
VH: B2 VH with A61N, T74K
VL: B2 VL with K45R, S83R, L109V
notes: Humanized My96 IgG (human IgG1 frameworks), expressed in DG44 cells; also called humanized My96 VH-2/VL-3
Molecule B4 registered a Kd of 0.143 pM, a koff of 9.16e-08 s⁻¹ and a kon of 641000 M⁻¹ s⁻¹.

B5: My96-H3L2 (antibody, human IgG1, V domains shown)
VH: B2 VH with M34I, M70I, T74K, T76A, S77T, V79A, A110Q, T113L
VL: B2 VL
notes: Humanized My96 IgG (human IgG1 frameworks), expressed in DG44 cells; also called hMy96 L2H3 (variable domains as in BsAb BC248); humanized My96 VH-3/VL-2
Take B5: binding was put at a Kd of 0.294 pM, the koff was determined as 1.6e-07 s⁻¹ and the kon was found to be 543000 M⁻¹ s⁻¹.

B6: My96-H3L3 (antibody, human IgG1, V domains shown)
VH: B2 VH with M34I, M70I, T74K, T76A, S77T, V79A, A110Q, T113L
VL: B2 VL with K45R, S83R, L109V
notes: Humanized My96 IgG (human IgG1 frameworks), expressed in DG44 cells; also called humanized My96 VH-3/VL-3
For the molecule B6, the Kd was determined as 0.324 pM, the koff was 2.03e-07 s⁻¹ and the kon turned out to be 625000 M⁻¹ s⁻¹.

B7: My96-H1L3 (antibody, human IgG1, V domains shown)
VH: B2 VH
VL: B2 VL with K45R, S83R, L109V
notes: Humanized My96 IgG (human IgG1 frameworks), expressed in DG44 cells; also called humanized My96 VH-1/VL-3
Turning to B7, the Kd was found to be 0.88 pM, the koff stood at 4.95e-07 s⁻¹ and the kon was found to be 563000 M⁻¹ s⁻¹.

B8: My96-H1L1 (antibody, human IgG1, V domains shown)
VH: B2 VH
VL: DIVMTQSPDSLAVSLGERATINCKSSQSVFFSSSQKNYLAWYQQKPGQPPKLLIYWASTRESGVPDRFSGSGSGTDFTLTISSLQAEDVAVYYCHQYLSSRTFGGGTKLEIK
notes: Humanized My96 IgG (CDRs grafted onto human IgG1 frameworks), expressed in DG44 cells; also called hMy96 H1L1; humanized My96 VH-1/VL-1
For B8, binding was characterised by a dissociation constant (Kd) of 0.321 pM, the koff is 1.44e-07 s⁻¹ and the on-rate (kon) is 447000 M⁻¹ s⁻¹.

B9: My96-H3L1 (antibody, human IgG1, V domains shown)
VH: B2 VH with M34I, M70I, T74K, T76A, S77T, V79A, A110Q, T113L
VL: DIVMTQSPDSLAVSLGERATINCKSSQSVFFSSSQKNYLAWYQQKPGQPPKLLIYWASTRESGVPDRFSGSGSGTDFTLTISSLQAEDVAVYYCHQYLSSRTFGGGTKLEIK
notes: Humanized My96 IgG (human IgG1 frameworks), expressed in DG44 cells; also called hMy96 L1H3 (variable domains as in BsAb BC269); humanized My96 VH-3/VL-1
On to B9, for which the Kd stood at 0.00645 pM, the koff came to 3.63e-09 s⁻¹ and the kon was found to be 563000 M⁻¹ s⁻¹.

B10: My96-H2L1 (antibody, human IgG1, V domains shown)
VH: B2 VH with A61N, T74K
VL: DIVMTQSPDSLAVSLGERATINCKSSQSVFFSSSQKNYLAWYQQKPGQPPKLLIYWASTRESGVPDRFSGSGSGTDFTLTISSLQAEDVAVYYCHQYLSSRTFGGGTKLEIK
notes: Humanized My96 IgG (human IgG1 frameworks), expressed in DG44 cells; also called hMy96 L1H2 (variable domains as in BsAb BC257); humanized My96 VH-2/VL-1
Consider B10, for which the Kd is 2.42 pM, the koff was found to be 1.51e-06 s⁻¹ and the association rate constant (kon) turned out to be 623000 M⁻¹ s⁻¹.

In general, Kd refers to the free concentration of one partner at which half of the binding sites on the other are occupied at equilibrium, for simple one-to-one binding. A lower Kd goes with tighter binding. What is called koff is a measure of how fast the partners let go of each other. Low readings indicate a long-lived complex, high ones a short-lived complex. As a reminder, the kon is the rate constant with which the complex forms. A higher kon goes with faster complex formation.
